T1: Flag-tagged recombinant bone morphogenetic protein-1 (BMP-1) (UniProt P13497-2 121-730, limits assumed)
T1 sequence (looked up): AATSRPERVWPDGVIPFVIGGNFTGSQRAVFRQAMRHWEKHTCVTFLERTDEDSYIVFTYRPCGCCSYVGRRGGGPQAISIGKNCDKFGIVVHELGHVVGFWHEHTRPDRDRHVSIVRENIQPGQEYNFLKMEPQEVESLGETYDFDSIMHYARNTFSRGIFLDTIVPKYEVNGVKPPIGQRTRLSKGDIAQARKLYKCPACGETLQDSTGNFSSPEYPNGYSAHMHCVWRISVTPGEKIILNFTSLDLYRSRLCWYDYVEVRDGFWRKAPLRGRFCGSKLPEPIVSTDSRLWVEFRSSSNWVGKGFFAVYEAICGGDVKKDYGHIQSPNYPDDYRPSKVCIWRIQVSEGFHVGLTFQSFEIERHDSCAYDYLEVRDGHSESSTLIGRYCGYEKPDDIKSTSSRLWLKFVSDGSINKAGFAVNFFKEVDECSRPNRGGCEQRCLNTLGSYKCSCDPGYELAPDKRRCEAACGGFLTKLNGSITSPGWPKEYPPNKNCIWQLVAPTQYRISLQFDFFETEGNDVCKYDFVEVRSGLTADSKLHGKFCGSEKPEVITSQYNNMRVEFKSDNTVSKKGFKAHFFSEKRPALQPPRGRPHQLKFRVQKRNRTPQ


What was measured:
[1] = target: T1, Flag-tagged recombinant bone …; assay: cell-based or functional assay
[2] = target: T1, Flag-tagged recombinant bone …; assay: time course of covalent complex formation of 40 nM 35S-BMP-1 with increasing α2M, SDS-PAGE densitometry (method of Enghild et al.)
Procedure: 40 nM ³⁵S-labeled BMP-1 was incubated with 20, 40, 80, 160, and 240 nM plasma α₂M, or recombinant wild type α₂M or with 5, 10, 20, 40, and 80 nM b-α₂M at 37° C. in 50 mM Tris-HCl, pH 7.5, 100 mM NaCl and 10 mM CaCl₂. Reactions were stopped at 10, 30, 60, 90 and 120 minutes (plasma α₂M and recombinant wild type α₂M), or at 2, 5, 10, 20 and 30 minutes (b-α₂M) by adding. SDS-PAGE sample buffer and boiling 5 minutes at 95° C. Protein samples were separated on 7.5% acrylamide SDS-PAGE gels, which were then treated with EN³HANCE (DuPont) and exposed to film. Percentages of BMP-1 incorporated into high molecular weight complexes were determined by densitometry and kinetic parameters were determined essentially via the method of Enghild J, et al, “Interaction of human rheumatoid synovial collagenase (matrix metalloproteinase 1) and stromelysin (matrix metalloproteinase 3) with human alpha 2-macroglobulin and chicken ovostatin. Binding kinetics and identification of matrix metalloproteinase cleavage sites,” J. Biol. Chem. 264:8779-8785 (1989).
To obtain a quantitative comparison of the rates of interaction of BMP-1 with the various wild type and mutant forms of α₂M, we employed the methodology of Enghild et al., supra, which involves quantification of covalent proteinase-α₂M complex formation, subsequent to incubation of radiolabeled proteinase with α₂M.

inhibition of BMP-1 pCP activity (cleavage of 3H-radiolabeled type I procollagen), IC50 [1] [nM]	Ki [2] [nM]	pCP inhibitory activity, IC50 [1] [nM]	Binder
4.8	25.2		human α2-macroglobulin from plasma (Sigma-Aldrich) (other, Bought plasma protein; also called plasma α2M; serum α2M) SVSGKPQYMVLVPSLLHTETTEKGCVLLSYLNETVTVSASLESVRGNRSLFTDLEAENDVLHCVAFAVPKSSSNEEVMFLTVQVKGPTQEFKKRTTVMVKNEDSLVFVQTDKSIYKPGQTVKFRVVSMDENFHPLNELIPLVYIQDPKGNRIAQWQSFQLEGGLKQFSFPLSSEPFQGSYKVVVQKKSGGRTEHPFTVEEFVLPKFEVQVTVPKIITILEEEMNVSVCGLYTYGKPVPGHVTVSICRKYSDASDCHGEDSQAFCEKFSGQLNSHGCFYQQVKTKVFQLKRKEYEMKLHTEAQIQEEGTVVELTGRQSSEITRTITKLSFVKVDSHFRQGIPFFGQVRLVDGKGVPIPNKVIFIRGNEANYYSNATTDEHGLVQFSINTTNVMGTSLTVRVNYKDRSPCYGYQWVSEEHEEAHHTAYLVFSPSKSFVHLEPMSHELPCGHTQTVQAHYILNGGTLLGLKKLSFYYLIMAKGGIVRTGTHGLLVKQEDMKGHFSISIPVKSDIAPVARLLIYAVLPTGDVIGDSAKYDVENCLANKVDLSFSPSQSLPASHAHLRVTAAPQSVCALRAVDQSVLLMKPDAELSASSVYNLLPEKDLTGFPGPLNDQDDEDCINRHNVYINGITYTPVSSTNEKDMYSFLEDMGLKAFTNSKIRKPKMCPQLQQYEMHGPEGLRVGFYESDVMGRGHARLVHVEEPHTETVRKYFPETWIWDLVVVNSAGVAEVGVTVPDTITEWKAGAFCLSEDAGLGISSTASLRAFQPFFVELTMPYSVIRGEAFTLKATVLNYLPKCIRVSVQLEASPAFLAVPVEKEQAPHCICANGRQTVSWAVTPKSLGNVNFTVSAEALESQELCGTEVPSVPEHGRKDTVIKPLLVEPEGLEKETTFNSLLCPSGGEVSEELSLKLPPNVVEESARASVSVLGDILGSAMQNTQNLLQMPYGCGEQNMVLFAPNIYVLDYLNETQQLTPEIKSKAIGYLNTGYQRQLNYKHYDGSYSTFGERYGRNQGNTWLTAFVLKTFAQARAYIFIDEAHITQALIWLSQRQKDNGCFRSSGSLLNNAIKGGVEDEVTLSAYITIALLEIPLTVTHPVVRNALFCLESAWKTAQEGDHGSHVYTKALLAYAFALAGNQDKRKEVLKSLNEEAVKKDNSVHWERPQKPKAPVGHFYEPQAPSAEVEMTSYVLLAYLTAQPAPTSEDLTSATNIVKWITKQQNAQGGFSSTQDTVVALHALSKYGAATFTRTGKAAQVTIQSSGTFSSKFQVDNNNRLLLQQVSLPELPGEYSMKVTGEGCVYLQTSLKYNILPEKEEFPFALGVQTLPQTCDEPKAHTSFQISLSVSYTGSRSASNMAIVDVKMVSGFIPLKPTVKMLERSNHVSRTEVSSNHVLIYLDKVSNQTLSLFFTVLQDVPVRDLKPAIVKVYDYYETDEFAIAEYNAPCSKDLGNA
	39.5	133	recombinant wild type α2-macroglobulin (FLAG-tagged) (other, not shown: small tags and cut ends, Expressed in 293 T-REx cells with the native signal peptide replaced by the BM40 signal peptide; also called rα2M; recombinant α2M) SVSGKPQYMVLVPSLLHTETTEKGCVLLSYLNETVTVSASLESVRGNRSLFTDLEAENDVLHCVAFAVPKSSSNEEVMFLTVQVKGPTQEFKKRTTVMVKNEDSLVFVQTDKSIYKPGQTVKFRVVSMDENFHPLNELIPLVYIQDPKGNRIAQWQSFQLEGGLKQFSFPLSSEPFQGSYKVVVQKKSGGRTEHPFTVEEFVLPKFEVQVTVPKIITILEEEMNVSVCGLYTYGKPVPGHVTVSICRKYSDASDCHGEDSQAFCEKFSGQLNSHGCFYQQVKTKVFQLKRKEYEMKLHTEAQIQEEGTVVELTGRQSSEITRTITKLSFVKVDSHFRQGIPFFGQVRLVDGKGVPIPNKVIFIRGNEANYYSNATTDEHGLVQFSINTTNVMGTSLTVRVNYKDRSPCYGYQWVSEEHEEAHHTAYLVFSPSKSFVHLEPMSHELPCGHTQTVQAHYILNGGTLLGLKKLSFYYLIMAKGGIVRTGTHGLLVKQEDMKGHFSISIPVKSDIAPVARLLIYAVLPTGDVIGDSAKYDVENCLANKVDLSFSPSQSLPASHAHLRVTAAPQSVCALRAVDQSVLLMKPDAELSASSVYNLLPEKDLTGFPGPLNDQDDEDCINRHNVYINGITYTPVSSTNEKDMYSFLEDMGLKAFTNSKIRKPKMCPQLQQYEMHGPEGLRVGFYESDVMGRGHARLVHVEEPHTETVRKYFPETWIWDLVVVNSAGVAEVGVTVPDTITEWKAGAFCLSEDAGLGISSTASLRAFQPFFVELTMPYSVIRGEAFTLKATVLNYLPKCIRVSVQLEASPAFLAVPVEKEQAPHCICANGRQTVSWAVTPKSLGNVNFTVSAEALESQELCGTEVPSVPEHGRKDTVIKPLLVEPEGLEKETTFNSLLCPSGGEVSEELSLKLPPNVVEESARASVSVLGDILGSAMQNTQNLLQMPYGCGEQNMVLFAPNIYVLDYLNETQQLTPEIKSKAIGYLNTGYQRQLNYKHYDGSYSTFGERYGRNQGNTWLTAFVLKTFAQARAYIFIDEAHITQALIWLSQRQKDNGCFRSSGSLLNNAIKGGVEDEVTLSAYITIALLEIPLTVTHPVVRNALFCLESAWKTAQEGDHGSHVYTKALLAYAFALAGNQDKRKEVLKSLNEEAVKKDNSVHWERPQKPKAPVGHFYEPQAPSAEVEMTSYVLLAYLTAQPAPTSEDLTSATNIVKWITKQQNAQGGFSSTQDTVVALHALSKYGAATFTRTGKAAQVTIQSSGTFSSKFQVDNNNRLLLQQVSLPELPGEYSMKVTGEGCVYLQTSLKYNILPEKEEFPFALGVQTLPQTCDEPKAHTSFQISLSVSYTGSRSASNMAIVDVKMVSGFIPLKPTVKMLERSNHVSRTEVSSNHVLIYLDKVSNQTLSLFFTVLQDVPVRDLKPAIVKVYDYYETDEFAIAEYNAPCSKDLGNA

From patent US20080085863A1 (WISCONSIN ALUMNI RESEARCH FOUNDATION, published 2008)
